According to US20170119861:

Legend:
[1] = target: Aβ42 oligomers, P05067
[2] = target: Aβ42 fibrils, P05067
[3] = target: synthetic Aβ42 peptide, P05067
[4] = target: Aβ40 high molecular weight fibrils, P05067
[5] = target: synthetic Aβ40 peptide, P05067
Chain of synthetic Aβ40 peptide, P05067 (P05067 whole entry, looked up, tested part not stated): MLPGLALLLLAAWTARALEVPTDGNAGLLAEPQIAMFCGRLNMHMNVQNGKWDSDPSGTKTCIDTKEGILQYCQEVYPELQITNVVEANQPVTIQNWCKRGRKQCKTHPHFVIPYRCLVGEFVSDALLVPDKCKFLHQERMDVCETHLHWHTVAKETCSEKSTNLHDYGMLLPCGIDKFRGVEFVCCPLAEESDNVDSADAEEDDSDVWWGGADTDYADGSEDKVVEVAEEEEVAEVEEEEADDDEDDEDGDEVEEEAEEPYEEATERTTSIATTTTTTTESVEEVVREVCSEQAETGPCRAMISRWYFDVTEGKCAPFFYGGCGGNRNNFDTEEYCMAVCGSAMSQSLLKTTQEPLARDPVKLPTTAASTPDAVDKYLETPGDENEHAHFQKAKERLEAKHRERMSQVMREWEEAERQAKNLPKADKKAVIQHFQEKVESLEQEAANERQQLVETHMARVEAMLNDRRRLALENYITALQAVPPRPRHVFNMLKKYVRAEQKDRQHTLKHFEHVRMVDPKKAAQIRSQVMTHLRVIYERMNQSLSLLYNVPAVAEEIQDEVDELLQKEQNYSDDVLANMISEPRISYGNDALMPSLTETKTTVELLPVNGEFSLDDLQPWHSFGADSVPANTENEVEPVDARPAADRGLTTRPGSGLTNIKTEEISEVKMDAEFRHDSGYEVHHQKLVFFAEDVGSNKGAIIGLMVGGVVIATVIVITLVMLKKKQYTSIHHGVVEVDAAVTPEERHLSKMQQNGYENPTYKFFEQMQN

Chain of synthetic Aβ42 peptide, P05067 (P05067 whole entry, looked up, tested part not stated): as above
Chain of Aβ42 oligomers, P05067 (P05067 whole entry, looked up): as the sequence (P05067 whole entry, looked up, tested part not stated) above
Chain of Aβ40 high molecular weight fibrils, P05067 (P05067 whole entry, looked up): as the sequence (P05067 whole entry, looked up, tested part not stated) above
Chain of Aβ42 fibrils, P05067 (P05067 whole entry, looked up): as the sequence (P05067 whole entry, looked up, tested part not stated) above

B1: protective protein/cathepsin A (PPCA) (protein)
chain: APDQDEIQRLPGLAKQPSFRQYSGYLKGSGSKHLHYWFVESQKDPENSPVVLWLNGGPGCSSLDGLLTEHGPFLVQPDGVTLEYNPYSWNLIANVLYLESPAGVGFSYSDDKFYATNDTEVAQSNFEALQDFFRLFPEYKNNKLFLTGESYAGIYIPTLAVLVMQDPSMNLQGLAVGNGLSSYEQNDNSLVYFAYYHGLLGNRLWSSLQTHCCSQNKCNFYDNKDLECVTNLQEVARIVGNSGLNIYNLYAPCAGGVPSHFRYEKDTVVVQDLGNIFTRLPLKRMWHQALLRSGDKVRMDPPCTNTTAASTYLNNPYVRKALNIPEQLPQWDMCNFLVNLQYRRLYRSMNSQYLKLLSSQKYQILLYNGDVDMACNFMGDEWFVDSLNQKMEVQRRPWLVKYGDSGEQIAGFVKEFSHIAFLTIKGAGHMVPTDKPLAAFTMFSRFLNKQPY
- western blot (A11) of day 9 Aβ42 oligomers after overnight treatment with 90 ng enzyme [1]: resulted in degradation of the lowest oligomer band (line 4)
- western blot (E610) of day 9 Aβ42 fibrils after overnight treatment with 90 ng enzyme [2]: resulted in reduction/degradation of the fibril smear as well as degradation of oligomer species (line 4 compared to line 1)
- Aβ42 aggregation by THT assay and western blot [3]: PPCA can efficiently prevent formation of Aβ42 amyloid species
- human Aβ42 specific ELISA signal after treatment with 90 ng cathepsin A (0-120 min, 37° C., pH 5.0) [3]: a loss of fluorescent signal already within first 10 min of treatment
- western blot of Aβ40 co-incubated with Cath A for up to 9 days during fibril formation [4]: Cath A significantly prevents formation of high molecular weight fibrils
- ELISA with C-terminal capture antibody after 2 h incubation of Aβ40 with varying Cath A concentrations [5]: progressively reduced binding of Aβ40 peptide to C-terminal capture antibody with increasing concentration of Cath A
- THT aggregation of Aβ40 after pre-incubation with Cath A for up to two hours [5]: Aβ40 peptide did not aggregate after pre-incubation with Cath A
- THT aggregation of Aβ40 with simultaneous incubation with Cath A [5]: aggregation of Aβ40 amyloid is not affected by Cath A, in applied experimental settings, even when high concentration of enzyme is used
